Substitutions are numbered along the chain they refer to.

The target in assay [1] is T1, mPD-L2 dimer (Mus musculus, UniProt Q9WUL5).
T1 construct: also called mouse PD-L2 protein
T1 sequence (PD-L2 chain, looked up): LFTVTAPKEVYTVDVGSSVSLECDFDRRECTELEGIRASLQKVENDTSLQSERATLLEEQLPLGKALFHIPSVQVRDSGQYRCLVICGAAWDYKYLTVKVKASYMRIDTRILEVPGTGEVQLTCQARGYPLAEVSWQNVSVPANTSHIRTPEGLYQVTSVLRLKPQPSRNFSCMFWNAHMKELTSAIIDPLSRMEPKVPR
Nature of the assay: Octet, column mPD-L2 dimer; unit Molar from the legend. For orientation: Biolayer interferometry detects binding as a change in optical thickness at a sensor tip.
Protocol: (§1) Antibody Characterization. Antibody candidates generated from yeast-surface display screening were tested for the capacity to bind to PD-L1 or PD-L2.

Assay [2] deals with T2, Human PD-L2-Fc (Homo sapiens, UniProt Q9BQ51).
T2 construct: Antigen in Octet IgG KD Human PD-L2-Fc (M) Avid
T2 sequence (PD-L2-Fc fusion chain, looked up): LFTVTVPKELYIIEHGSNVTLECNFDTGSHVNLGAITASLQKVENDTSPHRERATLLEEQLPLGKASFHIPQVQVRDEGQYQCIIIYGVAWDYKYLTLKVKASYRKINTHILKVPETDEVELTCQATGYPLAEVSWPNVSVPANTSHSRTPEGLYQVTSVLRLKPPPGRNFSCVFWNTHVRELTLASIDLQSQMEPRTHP
Nature of the assay: Octet, column hPD-L2 dimer; unit Molar from the legend.

In assay [3] the target is T3, human PD-L1 protein (monomeric, soluble analyte) (human, UniProt Q9NZQ7 19-238).
T3 construct: Recombinant human PD-L1 protein used as analyte on Octet or Biacore; also called monomeric PD-L1; monomeric human ligand
T3 sequence (Q9NZQ7 19-238 limits assumed): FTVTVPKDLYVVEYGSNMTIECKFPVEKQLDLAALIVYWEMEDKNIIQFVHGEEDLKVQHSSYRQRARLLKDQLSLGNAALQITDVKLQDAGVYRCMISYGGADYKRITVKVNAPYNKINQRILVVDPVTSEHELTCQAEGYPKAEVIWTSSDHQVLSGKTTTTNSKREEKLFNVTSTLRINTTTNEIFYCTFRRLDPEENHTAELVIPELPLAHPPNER
Nature of the assay: Octet, monomeric human ligand.

In assay [4] the target is T4, human PD-L2 protein (monomeric, soluble analyte) (human, UniProt Q9BQ51 20-220).
T4 construct: Recombinant human PD-L2 protein used as analyte on Octet or Biacore; a soluble form would lack the transmembrane part; also called monomeric PD-L2; monomeric human ligand
T4 sequence: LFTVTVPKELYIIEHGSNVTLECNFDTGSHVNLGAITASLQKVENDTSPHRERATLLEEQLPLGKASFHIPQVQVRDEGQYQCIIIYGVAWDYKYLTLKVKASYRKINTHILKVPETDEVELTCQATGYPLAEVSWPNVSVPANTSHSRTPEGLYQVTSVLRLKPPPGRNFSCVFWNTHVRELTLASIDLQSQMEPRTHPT
Nature of the assay: Octet, monomeric human ligand.

Assay [5] addresses T3, human PD-L1 protein (monomeric, soluble …). In words: Biacore, IgG KD, monovalent format, human PD-L1-His. Background: In SPR one partner is held on a chip, and binding of the other changes the refractive index at the surface.
In assay [6] the target is T5, Human PD-L1-Fc (Homo sapiens, UniProt Q9NZQ7).
T5 construct: Antigen in Octet IgG KD Human PD-L1-Fc (M) Avid
T5 sequence (Q9NZQ7 19-239 limits assumed): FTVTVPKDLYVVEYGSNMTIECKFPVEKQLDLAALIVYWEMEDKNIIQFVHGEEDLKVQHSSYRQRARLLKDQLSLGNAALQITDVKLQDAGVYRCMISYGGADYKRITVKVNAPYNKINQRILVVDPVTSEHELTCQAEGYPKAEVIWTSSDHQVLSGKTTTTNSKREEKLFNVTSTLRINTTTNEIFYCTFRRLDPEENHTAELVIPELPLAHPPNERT
Nature of the assay: Octet, IgG KD, avid format, human PD-L1-Fc.

The target in assay [7] is T2, Human PD-L2-Fc. In words: Octet, IgG KD, avid format, human PD-L2-Fc.
The target in assay [8] is T6, human PD-L2 (PDCD1LG2) expressed on cells (human, UniProt Q9BQ51 20-273).
T6 construct: also called PDCD1LG2 (PD-L2); PD-L2 CHO cells
T6 sequence: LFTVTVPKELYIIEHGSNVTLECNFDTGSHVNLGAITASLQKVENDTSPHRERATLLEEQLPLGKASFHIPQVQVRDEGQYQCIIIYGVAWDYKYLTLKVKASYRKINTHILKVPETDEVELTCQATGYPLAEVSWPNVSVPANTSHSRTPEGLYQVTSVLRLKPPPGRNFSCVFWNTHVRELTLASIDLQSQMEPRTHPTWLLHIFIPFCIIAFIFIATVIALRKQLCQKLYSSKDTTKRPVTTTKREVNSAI
In words: flow cytometry on live transfected HEK293 cells, dose range 0-300 µg/mL. For orientation: In flow cytometry, cells or beads pass a laser one at a time.
Protocol: (§2) Human HEK293 cells were transfected with expression vectors encoding ZsGreen1 only, or ZsGreen1 and CD274 (PD-L1), PDCD1LG2 (PD-L2), INSR isoform long, INSR Isoform short or CD20 (assay control). […] Cells were washed, and incubated with the same AF647 anti-human IgG Fc detection antibody as used in the cell microarray screens. Cells were again washed, and analyzed by flow cytometry using an Accuri flow cytometer (BD). A 7AAD live/dead dye was used to exclude dead cells in the analysis, and ZsGreen+ (transfected) cells were selected for analysis.
(§3) Interactions were then investigated by flow cytometry.

The target of assay [9] is T7, INSR isoform long, over-expressed on HEK293 cells (human, UniProt P06213 28-1382).
T7 construct: whole, on cells; Long isoform of the UniProt entry; also called INSR long isoform
Described as above.
Protocol: as §2, §3

Assay [10] has as its target T8, human PD-L1 (CD274) expressed on cells (human, UniProt Q9NZQ7 19-290).
T8 construct: also called CD274 (PD-L1); PD-L1 CHO cells
The assay is described as above.
Protocol: as §2, §3

Assay [11] deals with T9, Human INSR BioVendor (Homo sapiens, UniProt P06213-2).
T9 construct: recombinant soluble protein used in Octet, monovalent format; Antigen of the column Octet IgG KD Human INSR BioVendor (M) Monovalent
Nature of the assay: Octet, IgG KD, monovalent format, human INSR BioVendor.

Assay [12] concerns the target T5, Human PD-L1-Fc. Nature of the assay: Octet, column hPD-L1 dimer; unit Molar from the legend.
Assay [13] concerns the target T6, human PD-L2 (PDCD1LG2) expressed on …. In words: cell-based or functional assay.
In assay [14] the target is T4, human PD-L2 protein (monomeric, soluble …). Nature of the assay: Biacore, IgG KD, monovalent format, human PD-L2-His.
Assay [15] concerns the target T8, human PD-L1 (CD274) expressed on cells. In words: cell-based or functional assay.
Assay [16] concerns the target T10, mPD-L1 dimer (Mus musculus, UniProt Q9EP73).
T10 construct: also called mouse PD-L1 protein
In words: Octet, column mPD-L1 dimer; unit Molar from the legend.
Protocol: as §1

Assay [17] concerns the target T4, human PD-L2 protein (monomeric, soluble …). In words: Octet, IgG KD, monovalent format, human PD-L2-His.
Assay [18] addresses T3, human PD-L1 protein (monomeric, soluble …). Nature of the assay: Octet, IgG KD, monovalent format, human PD-L1-His.

T8 sequence (Q9NZQ7 19-290 limits assumed): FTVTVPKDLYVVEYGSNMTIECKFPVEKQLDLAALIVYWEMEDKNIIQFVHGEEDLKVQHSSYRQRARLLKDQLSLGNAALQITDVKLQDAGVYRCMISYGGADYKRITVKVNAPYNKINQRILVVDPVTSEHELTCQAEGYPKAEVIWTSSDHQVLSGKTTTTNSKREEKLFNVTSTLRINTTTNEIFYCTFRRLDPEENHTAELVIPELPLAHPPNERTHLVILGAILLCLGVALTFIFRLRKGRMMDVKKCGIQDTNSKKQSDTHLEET
T10 sequence (Q9EP73 19-238 limits assumed): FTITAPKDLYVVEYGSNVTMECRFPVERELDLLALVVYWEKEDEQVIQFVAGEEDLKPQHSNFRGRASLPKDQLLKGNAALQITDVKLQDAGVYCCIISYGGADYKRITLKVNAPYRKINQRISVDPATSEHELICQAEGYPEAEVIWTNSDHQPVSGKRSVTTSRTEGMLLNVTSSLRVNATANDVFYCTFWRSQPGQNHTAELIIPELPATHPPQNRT

B1: ADI-38002 (antibody, human IgG1, kappa, V domains shown)
VH: QVQLQQWGAGLLKPSETLSLTCAVYGGSLSGYPWSWIRQPPGKGLEWIGETDVSGWTDYNPSLKSRVTISVDTSKNQFSLKLSSVTAADTAVYYCARDGRRMGTPSFDIWGQGTMVTVSS
VL: DIQMTQSPSSVSASVGDRVTITCRASQDINSFLAWYQQKPGKAPKLLIYAASSLNSGVPSRFSGSGSGTDFTLTISSLQPEDFATYYCQKSVYFPPTFGGGTKVEIKR
notes: Human IgG1 (GASDIE); Some in vivo work used a mouse IgG2a form; also called Ab-38002; test antibody 38002
Broadly, the Kd is a measure of binding affinity in units of concentration. Higher therefore signals lower affinity. As usually defined, the EC50 is the midpoint of the concentration-response curve. Read a low EC50 as higher potency in that assay. The EC50 (read off the curve) is the concentration needed to bring the measured effect to its halfway point. Read a low EC50 (read off the curve) as higher potency in that assay. Regarding B1, the Kd in assay [1] came to 0.7 nM; in [2], 0.601 nM; in assay [3] it was 7.62 nM; in assay [4], 1.9 nM; in assay [5], 3.76 nM; in assay [6] it was 1.28 nM. For the same molecule, the dissociation constant (Kd) in assay [7] is 0.601 nM; in [12], 1.28 nM; in [14] it was 0.727 nM; in assay [16], 3.2 nM. For the same molecule, the values for the half-maximal effective concentration (EC50) in assay [8], in [9] and in assay [10] were 0.1 µg/mL, 145 µg/mL and 0.03 µg/mL, respectively. In addition, the binding result in assay [11] was “no binding”. For the same molecule, the “EC50 (read off the curve)” value in assay [13] was ~0.5 nM; in assay [15], ~1 nM.

B2: ADI-38003 (antibody, V domains shown)
VH: B1 VH
VL: B1 VL with Q27K, D28G, N30S, S91A
With B2, the Kd in [5] was 8.09 nM; in assay [17], 1.02 nM; in assay [6] it was 1.27 nM; in assay [7] it was 0.377 nM; in [14], 0.175 nM; in assay [18], 14.2 nM.

B3: ADI-38004 (antibody, V domains shown)
VH: B1 VH
VL: B1 VL with D28G, N30S, K90S, S91A
For B3, the Kd came out at 37.7 nM in assay [5]; 2.84 nM in assay [17]; 1.22 nM in assay [6]; 0.597 nM in assay [7]; 1.24 nM in [14]; 20 nM in [18].

B4: ADI-37464 (antibody, V domains shown)
VH: B1 VH
VL: B1 VL with D28G, S91A
Regarding B4, the Kd in [5] was found to be 2.76 nM; in assay [17] it was 1.6 nM; in [6] it was 1.52 nM; in [7] it was 0.426 nM; in assay [14] it was 0.508 nM; in [18] it was 6.23 nM.

Source of the values: US20260234285A1 (University of Texas, published 2026).
